Target: the molecule itself
Assay: SEC

| Protein | binding result |
| --- | --- |
| Sr35^R157A (receptor) MEIAMGAIGSLLPKLGELLIGEITLEKKVRKGIESLITELKLMQAVLSKVSKVPADQLDEGVKIWAGNVKELSYQMEDIVDAFMVRVGDGGESTNPKNRVKKILKKVKKLFKNGKDLHRISAALEEVVLQAKQLAELRQRYEQEMRDTSANTSVDPAMMALYTDVTELVGIEETRDKLINMLTEGDDWSKHPLKTISIVGFGGLGKTTLAKAAYDKIKVQFDCGAFVSVSRNPEMKKVLKDILYGLDKVKYENIHNAARDEKYLIDDIIEFLNDKRYLIVIDDIWNEKAWELIKCAFSKKSPGSRLITTTRNVSVSEACCSSEDDIYRMEPLSNDVSRTLFCKRIFSQEEGCPQELLKVSEEILKKCGGVPLAIITIASLLANKGHIKAKDEWYALLSSIGHGLTKNRSLEQMKKILLFSYYDLPSYLKPCLLYLSIFPEDREIRRARLIWRWISEGFVYSEKQDISLYELGDSYFNELVNRSMIQPIGIDDEGKVKACRVHDMVLDLICSLSSEENFVTILDDPRRKMPNSESKVRRLSIQNSKIDVDTTRMEHMRSVTVFSDNVVGKVLDISRFKVLRVLDLEGCHVSDVGYVGNLLHLRYLGLKGTHVKDLPMEIGKLQFLLTLDLRGTKIEVLPWSVVQLRRLMCLYVDYGMKLPSGIGNLTFLEVLDDLGLSDVDLDFVKELGRLTKLRVLRLDFHGFDQSMGKALEESISNMYKLDSLDVFVNRGLINCLSEHWVPPPRLCRLAFPSKRSWFKTLPSWINPSSLPLLSYLDITLFEVRSEDIQLLGTLPALVYLEIWNYSVFEEAHEVEAPVLSSGAALFPCATECRFIGIGAVPSMFPQGAAPRLKRLWFTFPAKWISSENIGLGMRHLPSLQRVVVDVISEGASREEADEAEAALRAAAEDHPNRPILDIW | binds |
| Sr35^Δ20 (domain or fragment) GEITLEKKVRKGIESLITELKLMQAVLSKVSKVPADQLDEGVKIWAGNVKELSYQMEDIVDAFMVRVGDGGESTNPKNRVKKILKKVKKLFKNGKDLHRISAALEEVVLQAKQLAELRQRYEQEMRDTSANTSVDPRMMALYTDVTELVGIEETRDKLINMLTEGDDWSKHPLKTISIVGFGGLGKTTLAKAAYDKIKVQFDCGAFVSVSRNPEMKKVLKDILYGLDKVKYENIHNAARDEKYLIDDIIEFLNDKRYLIVIDDIWNEKAWELIKCAFSKKSPGSRLITTTRNVSVSEACCSSEDDIYRMEPLSNDVSRTLFCKRIFSQEEGCPQELLKVSEEILKKCGGVPLAIITIASLLANKGHIKAKDEWYALLSSIGHGLTKNRSLEQMKKILLFSYYDLPSYLKPCLLYLSIFPEDREIRRARLIWRWISEGFVYSEKQDISLYELGDSYFNELVNRSMIQPIGIDDEGKVKACRVHDMVLDLICSLSSEENFVTILDDPRRKMPNSESKVRRLSIQNSKIDVDTTRMEHMRSVTVFSDNVVGKVLDISRFKVLRVLDLEGCHVSDVGYVGNLLHLRYLGLKGTHVKDLPMEIGKLQFLLTLDLRGTKIEVLPWSVVQLRRLMCLYVDYGMKLPSGIGNLTFLEVLDDLGLSDVDLDFVKELGRLTKLRVLRLDFHGFDQSMGKALEESISNMYKLDSLDVFVNRGLINCLSEHWVPPPRLCRLAFPSKRSWFKTLPSWINPSSLPLLSYLDITLFEVRSEDIQLLGTLPALVYLEIWNYSVFEEAHEVEAPVLSSGAALFPCATECRFIGIGAVPSMFPQGAAPRLKRLWFTFPAKWISSENIGLGMRHLPSLQRVVVDVISEGASREEADEAEAALRAAAEDHPNRPILDIW | binds |
